# Experimental data taken from the supplement of paper PMC5998384.
# Experiments:
# HeLa Kyoto [1] = experiment: melting temperature (median over replicates), in situ; higher = more thermally stable
# HeLa Kyoto [2] = experiment: thermal stability score vs G1/S (z-score of summed log2 fold changes over temperatures); higher = more thermally stable than in G1/S
# HeLa Kyoto [3] = experiment: solubility change mitosis vs G1/S (difference of NP-40 vs SDS log2 ratios) (log2 ratio difference); higher = more soluble in mitosis
# HeLa Kyoto [4] = experiment: solubility in G1/S (NP-40 vs SDS abundance) (log2 ratio); higher = more soluble; details: cell cycle stage: G1/S
# [5] = cell cycle stage: early G1 (4.5 h after nocodazole release)
# 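Wherever melting temperature (median over replicates), in situ is given: HeLa Kyoto cells synchronized by double thymidine or nocodazole block, proteins quantified by TMT10plex mass spectrometry, three independent biological replicates.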
# 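Wherever solubility change mitosis vs G1/S (difference of NP-40 vs SDS log2 ratios) is given: synchronized HeLa Kyoto cells (double thymidine block for G1/S, nocodazole release for mitosis), protein amounts in NP-40 versus SDS lysates quantified by mass spectrometry, three biological replicates.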
# 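Wherever solubility in G1/S (NP-40 vs SDS abundance) is given: HeLa Kyoto cells arrested at G1/S by double thymidine block, proteins quantified by TMT10plex mass spectrometry in mild NP-40 versus SDS extracts, three biological replicates.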
# 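Wherever thermal stability score vs G1/S (z-score of summed log2 fold changes over temperatures) is given: synchronized HeLa Kyoto cells, proteins quantified by TMT10plex mass spectrometry, three biological replicates, mitosis taken 0.5 h after nocodazole release, G1/S directly after double thymidine block.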
# Sequence of C1GALT1 (chain, as listed by the source): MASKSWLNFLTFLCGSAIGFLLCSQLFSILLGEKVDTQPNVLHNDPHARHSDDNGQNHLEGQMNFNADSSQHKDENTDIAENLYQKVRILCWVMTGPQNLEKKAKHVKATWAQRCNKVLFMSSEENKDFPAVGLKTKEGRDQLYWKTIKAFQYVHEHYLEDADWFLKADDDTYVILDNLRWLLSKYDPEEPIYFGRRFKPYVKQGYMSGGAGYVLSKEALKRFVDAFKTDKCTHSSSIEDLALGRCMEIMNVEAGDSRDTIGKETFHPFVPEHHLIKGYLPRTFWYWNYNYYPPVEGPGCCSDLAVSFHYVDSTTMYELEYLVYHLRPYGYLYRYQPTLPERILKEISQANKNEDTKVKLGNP
Substance,melting temperature (HeLa Kyoto [1]; cell cycle stage: G1/S) [°C],melting temperature (HeLa Kyoto [1]; cell cycle stage: mitosis) [°C],thermal stability score (HeLa Kyoto [2]; [5]),thermal stability score (HeLa Kyoto [2]; cell cycle stage: mitosis),solubility change mitosis (log2) (HeLa Kyoto [3]),solubility in G1/S (log2) (HeLa Kyoto [4])
MSAGEVERLVSELSGGTGGDEEEEWLYGGPWDVHVHSDLAKDLDENEVERPEEENASANPPSGIEDETAENGVPKPKVTETEDDSDSDSDDDEDDVHVTIGDIKTGAPQYGSYGTAPVNLNIKTGGRVYGTTGTKVKGVDLDAPGSINGVPLLEVDLDSFEDKPWRKPGADLSDYFNYGFNEDTWKAYCEKQKRIRMGLEVIPVTSTTNKITAEDCTMEVTPGAEIQDGRFNLFKVQQGRTGNSEKETALPSTKAEFTSPPSLFKTGLPPSRNSTSSQSQTSTASRKANSSVGKWQDRYGRAESPDLRRLPGAIDVIGQTITISRVEGRRRANENSNIQVLSERSATEVDNNFSKPPPFFPPGAPPTHLPPPPFLPPPPTVSTAPPLIPPPGFPPPPGAPPPSLIPTIESGHSSGYDSRSARAFPYGNVAFPHLPGSAPSWPSLVDTSKQWDYYARREKDRDRERDRDRERDRDRDRERERTRERERERDHSPTPSVFNSDEERYRYREYAERGYERHRASREKEERHRERRHREKEETRHKSSRSNSRRRHESEEGDSHRRHKHKKSKRSKEGKEAGSEPAPEQESTEATPAE [FIP1L1],48.8,49.9,0.669,2.71,0.265,-0.594
MGNCCWTQCFGLLRKEAGRLQRVGGGGGSKYFRTCSRGEHLTIEFENLVESDEGESPGSSHRPLTEEEIVDLRERHYDSIAEKQKDLDKKIQKELALQEEKLRLEEEALYAAQREAARAAKQRKLLEQERQRIVQQYHPSNNGEYQSSGPEDDFESCLRNMKSQYEVFRSSRLSSDATVLTPNTESSCDLMTKTKSTSGNDDSTSLDLEWEDEEGMNRMLPMRERSKTEEDILRAALKYSNKKTGSNPTSASDDSNGLEWENDFVSAEMDDNGNSEYSGFVNPVLELSDSGIRHSDTDQQTR [AP1AR],,59.6,-0.31,-1.09,-0.24,0.104
MARPLVPSSQKALLLELKGLQEEPVEGFRVTLVDEGDLYNWEVAIFGPPNTYYEGGYFKARLKFPIDYPYSPPAFRFLTKMWHPNIYETGDVCISILHPPVDDPQSGELPSERWNPTQNVRTILLSVISLLNEPNTFSPANVDASVMYRKWKESKGKDREYTDIIRKQVLGTKVDAERDGVKVPTTLAEYCVKTKAPAPDEGSDLFYDDYYEDGEVEEEADSCFGDDEDDSGTEES [CDC34],48.8,49.1,0.555,2.54,-0.0905,0.3
MGDAKEAGAEGPPAGAAARGGLSLLSQGESEESSAQGSALFLGGNEVKSRAVVKYSSAPPRTAFARLEEKTDLKLPPANWLRESAKLGPAGTTILGNSKKSKPFSSFGMAYDFIDSVGNDVDVVSDSENIKKLLKIPYSKSHVSMAVHRIGRTLLLDELDIQELFMRSSQTGDWTWLKEFYQRLIDQKWQRKKKSKEHWYQKAILSKFLYYSINGDGAAQPVSSTAEQQESSSSDQTNDSEGASWPAPFEMPSSVSEDPSASSQGSEPLEPSYIVGHVASAPKEQNLITLFNDGEHSQGLKNDFVRNILWTFEDIHMLVGSNMPIFGGGRYPAVSLRLRDNNKPINVLTGIDYWLDNLICNVPELVMCFHVNGIVQKYEMIKTEEIPNLENSNFSTKVIKDIAQNILSFLKSNCTKEGHTYWLFKASGSDIVKLYDLTTLCEETEDKYQNPFTMPVAILLYKVACNMMMKKNQNKKHYGTIRTLLLNCLKLLDKSRHPQIIASANYMLSELFQLDEPKKEENSESPLNENSDESYSEEEEEMPDSDENGSYSTSSDPSDDSKAVAIIKSVGELSVPEKYKSIHQIRPSCAFPVCHDTEERCRLVLSYVLEGLKSVDSSIKKESDLPAADPSTPIPLKYEDESSRGGPEGLEKQMALFLDKMGSLQKGNYSSQSGMIPGSWQHKMKLQLILKSSKAYYVLSDAAMSLQKYGRALRYIKLALQSHDTYCCLCTNMLSEVLLFLSQYLTLCGDIQLMLAQNANNRAAHLEEFHYQTKEDQEILHSLHRESSCQGFAWATDLSTDLESQLSVSCKCYEAANEILQFSDLKSQNPEHYVQVLKRMGNIRNEIGVFYMNQAAALQSERLVSKSVSAAEQQLWKKSFSCFEKGIHNFESIEDATNAALLLCNTGRLMRICAQAHCGAGDELKREFSPEEGLYYNKAIDYYLKALRSLGTRDIHPAVWDSVNWELSTTYFTMATLQQDYAPLSRKAQEQIEKEVSEAMMKSLKYCDVDSVSARQPLCQYRAATIHHRLASMYHSCLRNQVGDEHLRKQHRVLADLHYSKAAKLFQLLKDAPCELLRVQLERVAFAEFQMTSQNSNVGKLKTLSGALDIMVRTEHAFQLIQKELIEEFGQPKSGDAAAAADASPSLNREEVMKLLSIFESRLSFLLLQSIKLLSSTKKKTSNNIEDDTILKTNKHIYSQLLRATANKTATLLERINVIVHLLGQLAAGSAASSNAVQ [EDRF1],51,49.3,0.416,-0.168,-0.0878,-0.026
VLDLR,56.4,55.4,-2.48,-3.74,-0.0963,-0.0421
MPFDFRRFDIYRKVPKDLTQPTYTGAIISICCCLFILFLFLSELTGFITTEVVNELYVDDPDKDSGGKIDVSLNISLPNLHCELVGLDIQDEMGRHEVGHIDNSMKIPLNNGAGCRFEGQFSINKVPGNFHVSTHSATAQPQNPDMTHVIHKLSFGDTLQVQNIHGAFNALGGADRLTSNPLASHDYILKIVPTVYEDKSGKQRYSYQYTVANKEYVAYSHTGRIIPAIWFRYDLSPITVKYTERRQPLYRFITTICAIIGGTFTVAGILDSCIFTASEAWKKIQLGKMH [ERGIC1],55.2,55.6,-0.418,-0.585,-0.178,0.18
NCOR1,48.5,52.2,0.817,5.94,0.0133,-0.0922
C1GALT1,53.7,53.6,-1.2,0.982,-0.0544,0.222
MDRSGFGEISSPVIREAEVTRTARKQSAQKRVLLQASQDENFGNTTPRNQVIPRTPSSFRQPFTPTSRSLLRQPDISCILGTGGKSPRLTQSSGFFGNLSMVTNLDDSNWAAAFSSQRSGLFTNTEPHSITEDVTISAVMLREDDPGEAASMSMFSDFLQSFLKHSSSTVFDLVEEYENICGSQVNILSKIVSRATPGLQKFSKTASMLWLLQQEMVTWRLLASLYRDRIQSALEEESVFAVTAVNASEKTVVEALFQRDSLVRQSQLVVDWLESIAKDEIGEFSDNIEFYAKSVYWENTLHTLKQRQLTSYVGSVRPLVTELDPDAPIRQKMPLDDLDREDEVRLLKYLFTLIRAGMTEEAQRLCKRCGQAWRAATLEGWKLYHDPNVNGGTELEPVEGNPYRRIWKISCWRMAEDELFNRYERAIYAALSGNLKQLLPVCDTWEDTVWAYFRVMVDSLVEQEIQTSVATLDETEELPREYLGANWTLEKVFEELQATDKKRVLEENQEHYHIVQKFLILGDIDGLMDEFSKWLSKSRNNLPGHLLRFMTHLILFFRTLGLQTKEEVSIEVLKTYIQLLIREKHTNLIAFYTCHLPQDLAVAQYALFLESVTEFEQRHHCLELAKEADLDVATITKTVVENIRKKDNGEFSHHDLAPALDTGTTEEDRLKIDVIDWLVFDPAQRAEALKQGNAIMRKFLASKKHEAAKEVFVKIPQDSIAEIYNQCEEQGMESPLPAEDDNAIREHLCIRAYLEAHETFNEWFKHMNSVPQKPALIPQPTFTEKVAHEHKEKKYEMDFGIWKGHLDALTADVKEKMYNVLLFVDGGWMVDVREDAKEDHERTHQMVLLRKLCLPMLCFLLHTILHSTGQYQECLQLADMVSSERHKLYLVFSKEELRKLLQKLRESSLMLLDQGLDPLGYEIQL [NUP107],51.1,49.3,-2.75,-3.13,0.428,-0.526
MRMSVGLSLLLPLSGRTFLLLLSVVMAQSHWPSEPSEAVRDWENQLEASMHSVLSDLHEAVPTVVGIPDGTAVVGRSFRVTIPTDLIASSGDIIKVSAAGKEALPSWLHWDSQSHTLEGLPLDTDKGVHYISVSATRLGANGSHIPQTSSVFSIEVYPEDHSELQSVRTASPDPGEVVSSACAADEPVTVLTVILDADLTKMTPKQRIDLLHRMRSFSEVELHNMKLVPVVNNRLFDMSAFMAGPGNAKKVVENGALLSWKLGCSLNQNSVPDIHGVEAPAREGAMSAQLGYPVVGWHIANKKPPLPKRVRRQIHATPTPVTAIGPPTTAIQEPPSRIVPTPTSPAIAPPTETMAPPVRDPVPGKPTVTIRTRGAIIQTPTLGPIQPTRVSEAGTTVPGQIRPTMTIPGYVEPTAVATPPTTTTKKPRVSTPKPATPSTDSTTTTTRRPTKKPRTPRPVPRVTTKVSITRLETASPPTRIRTTTSGVPRGGEPNQRPELKNHIDRVDAWVGTYFEVKIPSDTFYDHEDTTTDKLKLTLKLREQQLVGEKSWVQFNSNSQLMYGLPDSSHVGKHEYFMHATDKGGLSAVDAFEIHVHRRPQGDRAPARFKAKFVGDPALVLNDIHKKIALVKKLAFAFGDRNCSTITLQNITRGSIVVEWTNNTLPLEPCPKEQIAGLSRRIAEDDGKPRPAFSNALEPDFKATSITVTGSGSCRHLQFIPVVPPRRVPSEAPPTEVPDRDPEKSSEDDVYLHTVIPAVVVAAILLIAGIIAMICYRKKRKGKLTLEDQATFIKKGVPIIFADELDDSKPPPSSSMPLILQEEKAPLPPPEYPNQSVPETTPLNQDTMGEYTPLRDEDPNAPPYQPPPPFTAPMEGKGSRPKNMTPYRSPPPYVPP [DAG1],54.1,54.9,-2.43,-3.27,0.19,-0.103
MSAQAQMRALLDQLMGTARDGDETRQRVKFTDDRVCKSHLLDCCPHDILAGTRMDLGECTKIHDLALRADYEIASKERDLFFELDAMDHLESFIAECDRRTELAKKRLAETQEEISAEVSAKAEKVHELNEEIGKLLAKAEQLGAEGNVDESQKILMEVEKVRAKKKEAEEEYRNSMPASSFQQQKLRVCEVCSAYLGLHDNDRRLADHFGGKLHLGFIQIREKLDQLRKTVAEKQEKRNQDRLRRREEREREERLSRRSGSRTRDRRRSRSRDRRRRRSRSTSRERRKLSRSRSRDRHRRHRSRSRSHSRGHRRASRDRSAKYKFSRERASREESWESGRSERGPPDWRLESSNGKMASRRSEEKEAGEI [LUC7L],50.1,51.4,1.93,1.87,0.353,-0.598
MALVASVRVPARVLLRAGARLPGAALGRTERAAGGGDGARRFGSQRVLVEPDAGAGVAVMKFKNPPVNSLSLEFLTELVISLEKLENDKSFRGVILTSDRPGVFSAGLDLTEMCGRSPAHYAGYWKAVQELWLRLYQSNLVLVSAINGACPAGGCLVALTCDYRILADNPRYCIGLNETQLGIIAPFWLKDTLENTIGHRAAERALQLGLLFPPAEALQVGIVDQVVPEEQVQSTALSAIAQWMAIPDHARQLTKAMMRKATASRLVTQRDADVQNFVSFISKDSIQKSLQMYLERLKEEKG [ECI1],56.8,58.4,-0.579,-2.1,0.043,0.58
MAASVEQREGTIQVQGQALFFREALPGSGQARFSVLLLHGIRFSSETWQNLGTLHRLAQAGYRAVAIDLPGLGHSKEAAAPAPIGELAPGSFLAAVVDALELGPPVVISPSLSGMYSLPFLTAPGSQLPGFVPVAPICTDKINAANYASVKTPALIVYGDQDPMGQTSFEHLKQLPNHRVLIMKGAGHPCYLDKPEEWHTGLLDFLQGLQ [ABHD14B],52.9,52.7,-0.635,-1.1,-0.165,0.421
